The results in this text go back to paper PMC7141136, “Ohr and OhrR Are Critical for Organic Peroxide Resistance and Symbiosis in Azorhizobium caulinodans ORS571”.

The target in data set [1] is OhrR (AZC_3555) of Azorhizobium caulinodans ORS571, 6×His-tagged recombinant protein (Azorhizobium caulinodans ORS571). The data set is described as follows: non-reducing SDS-PAGE; purified OhrR oxidised with 0.1 mM CuOOH for 10 min, then non-reducing SDS-PAGE; covalent dimer.
Data set [2] deals with OhrR^C121S (Azorhizobium caulinodans ORS571). The description is as above.
For the next data set, the target named is T1, OhrR (Azorhizobium caulinodans ORS571, UniProt A8IEZ4 1-144).
T1 sequence: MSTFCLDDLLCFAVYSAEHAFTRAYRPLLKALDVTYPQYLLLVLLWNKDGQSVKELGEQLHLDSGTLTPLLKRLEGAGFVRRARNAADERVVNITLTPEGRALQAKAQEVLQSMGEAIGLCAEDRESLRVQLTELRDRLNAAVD
The data set is described as follows: EMSA; reduced (2.5 mM DTT in buffer); dose-dependent; 50 mM Tris-HCl pH 8.3, 0.25 M KCl, 2.5 mM DTT, 5 mM MgCl2, 0.05 ug/mL poly(dI-dC), 2.5 mM EDTA, 1% glycerol; 20 nM DNA, 20 uL, 20 min, room temperature; 6% native PAGE in 0.5x TBE. The following applies: protein: recombinant; tags: N-terminal 6xHis (pET-28a); chain copies: 2; label: none (GelRed stain). On the technique in general: A gel shift assay detects complexes by their altered migration in electrophoresis.

“OhrR (AZC_3555) of Azorhizobium caulinodans ORS571, 6×His-tagged recombinant protein (natural protein)”: in data set [1], the stoichiometry N turned out to be 2. Molecule OhrR^C121S (natural protein) displayed a stoichiometry N in data set [2] of 2.

B1: ohr promoter probe (181 bp) (dsDNA)
DNA 1: CAAAGGGTTAGTTTTCCGTTGCGGAAGGTTGGGTGATGTTGACGGTGGTCTGCAAAATAAGTTTGACACAATCAAATTGTGTGCTACTTAAATGGCCATGGAAGCGGCTTGGCCGTTTCTCATCGATTTCTCAAGGCACGAGGATCAAGCGATGTCCGTCGATGTGAAGTACACCACCAAG
DNA 2: CTTGGTGGTGTACTTCACATCGACGGACATCGCTTGATCCTCGTGCCTTGAGAAATCGATGAGAAACGGCCAAGCCGCTTCCATGGCCATTTAAGTAGCACACAATTTGATTGTGTCAAACTTATTTTGCAGACCACCGTCAACATCACCCAACCTTCCGCAACGGAAAACTAACCCTTTG
B1: the binding result with OhrR is on record as “binds”.

As usually defined, the stoichiometry N is the number of molecules, sites or subunits per partner or assembly.
